Measured values taken from paper PMC7547225.

Target: bacterially produced mm PCDH15 EC9-MAD12 (Mus musculus)
Experiment: SAXS

With “bacterially produced mm PCDH15 EC9-MAD12 (domain or fragment)” as the substance, how does the stoichiometry N read?
The stoichiometry N was 2.
